The values below come from US20210040232A1 (Regeneron, published 2021).

Positions count from the first letter of the chain named. Numbers in names are those of the source.

B1: H1M20370N (antibody, mouse IgG1, V domains shown)
VH: QVQLHESGPGLVKPSQTLSLTCSVSGGSISNGGYYWSWIRQHPGQGLEWIGYIYYIGNTYYNPSLESRVTMSIDTSKNQFSLKLSSVTAADTAIYYCARQEFVPGAEYFLHWGQGILVTVSS
VL: DIRMTQSPSSLSASVGDRVTITCRASQTVNTFLNWYQQKPGKAPKLLIFGASSLQSGVPSRFSGSGSGTDFTLTISGLQPEDFAIYYCQQSYSVPPITFGQGTRLEIE
notes: hybridoma antibody, human variable domains, mouse IgG1 Fc (H1M)
B2: H1M20372N (antibody, mouse IgG1, V domains shown)
VH: EVQLVESGGGLVQPGRSLRLSCAGTGFIFDDYAMHWVRQAPGKGLEWVSGISWNSNSLGYADSVKGRFTISRDNAKKSLYLQMSSLRAEDTALYYCVKDVTRLELRGFLDYWGQGTQVTVSS
VL: DIQMTQSPSSLSASVGDRVTITCRASQDIRNDLGWHQQKSGKAPKSLIYAASSLQSGAPSRFSGSGSGTEFTLTISSLQPEDSATYYCLQQNSYPPTFGQGTKVEIK
notes: as for B1
B3: H2M20373N (antibody, mouse IgG2, V domains shown)
VH: EVQLLESGGGLVQPGGSLRLSCAASGFTFSSYAMSWVRQAPGKGLEWVSDISGSGLSTYYADSVKGRFAISRDNSKNMLYLQMNRLRAEDTAVYYCAKEPSHWNGEAFDIWGQGTMVTVSS
VL: DIQMTQSPSSVSASVGDRVTITCRASQDISSWLAWYQQKPGKAPKLLIYTTANLQSGVPSRFSGSGSGTDFTLTISSLQSEDFATYYCQQANSFPFTFGSGTKVDIK
notes: hybridoma antibody, human variable domains, mouse IgG2 Fc (H2M)
B4: H2M20361N (antibody, mouse IgG2, V domains shown)
VH: QVQLQESGPGLVKPSQTLSLTCTVSGGSINNGGHYWTWIRQHPGKGLEWIGYIYYIGTTYYNPSLESRLSLSVDTSKNQFSLKLSSVTAADTAIYYCARSSLSVSEAFDVWGQGTMVTVSS
VL: DIQMTQSPSSLSASVGDRITITCRGSQNIGSFLSWYQQRPGKAPKLLIFGAYNLQGGVPSRFSGSGSGTDFTLTISSLQPEDFATYFCQQSYSTPPITFGQGTRLEIK
notes: as for B3
B5: H2M20368N (antibody, mouse IgG2, V domains shown)
VH: B4 VH with K13R, N30S, H34Y, H42N, S85T, I94V, S103A, V110I
VL: DIQMTQSPSSLSASVGDRFTITCRASQSIGSFLSWYQQKPGKAPKLLIYAASSLQSGVPSRFSGSGSGTDFTLTISSLQPEDFATYYCQQSYNTPPITFGQGTRLEIK
notes: as for B3
B6: H2M20369N (antibody, mouse IgG2, V domains shown)
VH: QVQLVQSGTEVKRPGASVKVSCKASGFTFTGYYIYWVRQAPGEGLEWMGWINPHSGGTKYAQKFQGRVTLTRDTSINTAYLDLISLRSDDTAVYYCARIGGGGYSSYFDYWGQGTLVTVSS
VL: DIQLTQSPSSLSASVGDRVTITCRASQTISTYLNWYQQKPGNAPKLLIYAASSLQSGVPSRFSGRGSGTDFTLTISSLQPEDFATYYCQQGYTTPPITFGQGTRLEIK
notes: as for B3
B7: H1M20393N (antibody, V domains shown)
VH: DRQMVESGGGVVQPGRSLRLSCIASGFIISRYGMHWVRQAPGKGLEWVAVIWYDGRNKNYADSVKGRFTISRDNSKNTLYLEMNSLRAEDTAVYYCGRVHQFGAFDIWGQGTMVTVSS
VL: not shown
notes: as for B1
B8: H2M20375N (antibody, mouse IgG2, V domains shown)
VH: QLQLQESGPGLVKPSETLSFTCTVSGGSISSNYYYWGWVRQSPGKGLEWIGSIYHTGNAYDNPSLKSRVTISVDTSKNQFSLNLNSVTAADTAIYYCARHHSSSSWWYFDVWGRGTLVIVSS
VL: EIVLTQSPDTLSLSPGERATLSCRASQTVSNSHLAWYQQKPGQAPRLLIYGTSSRATGIPDRFSGSGSGTDFSLTIIRLEPDDFAVYFCQQHESSPPTFGQGAKLEIK
notes: as for B3

T1 sequence (P16410 36-223 limits assumed): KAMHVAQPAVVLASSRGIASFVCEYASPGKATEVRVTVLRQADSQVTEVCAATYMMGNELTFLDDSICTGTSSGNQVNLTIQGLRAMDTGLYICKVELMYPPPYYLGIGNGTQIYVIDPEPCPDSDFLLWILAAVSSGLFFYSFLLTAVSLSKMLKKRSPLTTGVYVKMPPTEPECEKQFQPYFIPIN

The assay concerns the target T1, human CTLA-4 (amino acids M1-N223) on stably transfected VI-fibroblast cells (human, UniProt P16410 36-223).
T1 construct: also called VI-fibroblast/hCTLA-4
In words: ECL cell binding, VI-fibroblast/hCTLA-4 cells.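 Further: antibodies bound to the cells on carbon electrode plates, detected via SULFO-TAG anti-IgG secondary (1 h, RT), electrochemiluminescence read as RLU over a concentration range.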
Experimental: Briefly, mouse embryonic fibroblast cells isolated from Velocimmune® mice (VI-fibroblasts) were stably transfected with human CTLA-4 (amino acids M1-N223, NCBI Accession # NM_005214.4). […] Additionally, a reporter T cell line generated by transducing immortal human Jurkat T-cells (ATCC, Manassas, Va.) with an NFAT-Luc lentivirus reporter (Qiagen, Germantown, Md.) and h, m or mf CTLA-4 chimeric constructs was also assessed in this assay.
Approximately 2.0×10⁴ VI-fibroblast/hCTLA-4 cells or 1.0×10⁴ Jurkat/NFAT chimera cells were seeded separately onto 96-well carbon electrode plates (MULTI-ARRAY high bind plate, Meso Scale Discovery (MSD; Rockville, Md.)) and incubated for 1 hour (h) at 37° C. Nonspecific binding sites were blocked by 2% BSA (w/v) in PBS for 1 hour at room temperature (RT). […] Plates were then washed to remove unbound antibodies using an AquaMax2000 plate washer with a cell washing head (MDS Analytical Technologies, Sunnyvale, Calif.). The plate-bound antibodies were detected with either SULFO-TAG™-conjugated goat polyclonal anti-human IgG antibody specific for heavy and light chains (Jackson lmmunoresearch, West Grove, Pa.) or a SULFO-TAG™-conjugated goat polyclonal anti-mouse IgG antibody specific for Fcγ fragment (Jackson lmmunoresearch) for 1 h, RT.
After washes, plates were developed with Read Buffer (MSD) according to manufacturer's recommended procedure and luminescent signals were recorded with a SECTOR Imager 600 (MSD). Luminescence intensity, measured in relative light units (RLU), was recorded to indicate the binding intensity of each antibody at the range of concentrations.
Take B1: the response was half-maximal at 0.22 nM (EC50) and the “ratio of RLU signal to parental VI-fibroblast at 0.6 nM Ab” value (“ratio of RLU signal” for short) came out at 23 ratio.

Consider B2, for which the concentration giving a half-maximal response (EC50) stood at 0.88 nM and the “ratio of RLU signal” value turned out to be 14 ratio.

As to B3, the EC50 was determined as 0.062 nM and the “ratio of RLU signal” value is 22 ratio.

As for B4, the EC50 is 0.32 nM and the “ratio of RLU signal” value was 19 ratio.

In the case of B5, the half-maximal effective concentration (EC50) is 0.26 nM and the “ratio of RLU signal” value is 25 ratio.

Take B6: the midpoint of the response, the EC50, lay at 0.9 nM and the “ratio of RLU signal” value came out at 18 ratio.

Take B7: the EC50 turned out to be 7.3 nM and the “ratio of RLU signal” value was determined as 12 ratio.

Regarding B8, the EC50 turned out to be 0.19 nM and the “ratio of RLU signal” value amounted to 18 ratio.
